Holding throughout (assay type): biochemical
In one assay the test system is Ap4A-RNA. Put plainly: In vitro Ap4A-RNA decapping assay (cap-labelled RNA, thin-layer chromatography). Conditions: recombinant protein 250 nM to 750 nM, 37° C., 30 min, TLC. As for the experimental part: Briefly, using the Ap4A mixture (ATP and Ap4A) or Ap4A instead of ATP for in vitro transcription by MEGAshortscript™ T7 Transcription Kit (Life technologies; Cat. No. AM1354), we produced a 50 nt RNA. Template is the same as making 50 nt RNA for MEFs transfection. Note that if the mixture is used, this nucleotide mixture (ATP and Ap4A) still has all the components (lysine, inorganic pyrophosphatase etc) added during the Ap4A synthesis. In vitro transcription reaction was carried out at 37° C. for at least 4 h in a 20 μL reaction containing 6 pmol DNA template, 2 μL 10× reaction buffer, 2 μL of nucleotides (75 mM CTP, 75 mM UTP, 75 mM GTP), 2 μL of ATP/Ap4A mixture that we produced above, and 2 μL T7 enzyme mix (MEGAshortscript™ Kit, Life technologies, Cat. No. AM1354). After that, 1 μL TURBO DNase was added and incubated at 37° C. for 15 min to remove the DNA template. Unincorporated nucleotides were removed from the RNA preparation by Microspin G-25 Column (GE Healthcare, Cat. No. 27-5325-01), and the process was repeated twice. The radioactively labelled RNA was separated by 10% urea gel. […]
Decapping reaction products were resolved by PEI-cellulose TLC plates (Merk, Cat. No. 1057250001) and developed in 0.45 M (NH4)2SO4 in a glass chamber at room temperature. […] When required, signals were quantified by ImageQuantTL.

The test system of a further assay is m^7G-RNA. Put plainly: In vitro m7G-RNA decapping assay (cap-labelled RNA, thin-layer chromatography). As to conditions: recombinant protein 250 nM to 750 nM, 37° C., 30 min, TLC.
The nature of assay [1]: Ap4A hydrolysis assay (32P-labelled Ap4A, thin-layer chromatography). Conditions: 750 nM recombinant human NUDT2 or Nuclease P1 0.5 and 1 unit, TLC. As for the experimental part: To prepare radioactive Ap4A, we incubated 60 μCi of radioactive α-^32P-ATP (Perkin Elmer, Cat. no. BLU003X250UC; 75 fmol in 20 ul or 3.75 nM concentration) with 1 μM recombinant human Lys-tRNA synthetase (G540Y mutant) at 37° C. overnight in a 20 μl solution [100 mM Tris-HCl, pH 8.0, 10 mM MgCl2, 0.1 mM ZnCl2, 1 mM Lysine and 0.1 units inorganic pyrophosphatase (Sigma-Aldrich, Cat. no. I1643)].
We resolved the reaction products using thin-layer chromatography, using PEI-cellulose TLC plates (Merk, Cat. No. 1057250001) and developing it in 0.45 M (NH4)2SO4 using a glass chamber at room temperature. In addition to the ATP already present in the reaction, we see the presence of Ap4A (FIG. 9D). From this Ap4A mix (ATP and Ap4A), we obtained purified radioactive Ap4A (FIG. 9E) by HPLC (purification service kindly provided by Hartmann Analytic, Germany). For some experiments (FIG. 9F-G) we used this Ap4A mix (ATP and Ap4A). However, for most experiments (FIG. 2, FIG. 9E) the purified radioactive Ap4A was used.
For hydrolysis assays with Ap4A (AppppA, in bold is 32P), reactions were conducted as above, but the RNA was replaced with appropriate amount of HPLC-purified Ap4A. Hydrolysis assays were conducted with 750 nM of recombinant human NUDT2 or with Nuclease P1 (0.5 unit and 1 unit). NUDT2 hydrolyzes Ap4A (AppppA, in bold is 32P) into α-^32P-AMP and α-^32P-ATP (FIG. 2D).

B1: NUDT12: recombinant untagged full-length human NUDT12 (protein, UniProt Q9BQG2 1-462, looked up)
chain: MSSVKRSLKQEIVTQFHCSAAEGDIAKLTGILSHSPSLLNETSENGWTALMYAARNGHPEIVQFLLEKGCDRSIVNKSRQTALDIAVFWGYKHIANLLATAKGGKKPWFLTNEVEECENYFSKTLLDRKSEKRNNSDWLLAKESHPATVFILFSDLNPLVTLGGNKESFQQPEVRLCQLNYTDIKDYLAQPEKITLIFLGVELEIKDKLLNYAGEVPREEEDGLVAWFALGIDPIAAEEFKQRHENCYFLHPPMPALLQLKEKEAGVVAQARSVLAWHSRYKFCPTCGNATKIEEGGYKRLCLKEDCPSLNGVHNTSYPRVDPVVIMQVIHPDGTKCLLGRQKRFPPGMFTCLAGFIEPGETIEDAVRREVEEESGVKVGHVQYVACQPWPMPSSLMIGCLALAVSTEIKVDKNEIEDARWFTREQVLDVLTKGKQQAFFVPPSRAIAHQLIKHWIRINPNL
modifications: full-length
Turning to B1, the Ap4A-RNA decapping activity result in the assay on Ap4A-RNA was “only NUDT2 has Ap4A-RNA decapping activity”.

B2: 6×His-SUMO-tagged human NUDT2: recombinant full-length human NUDT2 with the larger 6×-His-SUMO tag (protein, UniProt P50583 1-147, looked up)
chain: MALRACGLIIFRRCLIPKVDNNAIEFLLLQASDGIHHWTPPKGHVEPGEDDLETALRETQEEAGIEAGQLTIIEGFKRELNYVARNKPKTVIYWLAEVKDYDVEIRLSHEHQAYRWLGLEEACQLAQFKEMKAALQEGHQFLCSIEA
modifications: full-length 6xHis-SUMO tag
notes: recombinant full-length human NUDT2 with the larger 6×-His-SUMO tag
On to B2, for which the m7G-RNA decapping activity entry in the assay with m^7G-RNA was “poorly active”.

B3: nuclease P1: nuclease used to hydrolyze RNAs prior to mass spectrometry (protein, UniProt P24289 1-270, looked up)
Nuclease P1: WGALGHATVAYVAQHYVSPEAASWAQGILGSSSSSYLASIASWADEYRLTSAGKWSASLHFIDAEDNPPTNCNVDYERDCGSSGCSISAIANYTQRVSDSSLSSENHAEALRFLVHFIGDMTQPLHDEAYAVGGNKINVTFDGYHDNLHSDWDTYMPQKLIGGHALSDAESWAKTLVQNIESGNYTAQAIGWIKGDNISEPITTATRWASDANALVCTVVMPHGAAALQTGDLYPTYYDSVIDTIELQIAKGGYRLANWINEIHGSEIAK
B3: in assay [1], the “Hydrolysis of Ap4A” value is recorded as “able to efficiently hydrolyse Ap4A”.

B4: NUDT2: recombinant full-length human NUDT2, Nudix hydrolase for Ap4A (protein)
chain: ALRACGLIIFRRHLIPKMDNSTIEFLLLQASDGIHHWTPPKGHVDPGENDLETALRETREETGIEASQLTIIEGFRRELNYVARQKPKTVIYWLAEVKDYNVEIRLSQEHQAYRWLGLEEACQLAQFKEMKATLQEGHQFLCSTPA
On to B4, for which the Ap4A-RNA decapping activity entry in the assay on Ap4A-RNA is reported as “only NUDT2 has Ap4A-RNA decapping activity”. Further, the m7G-RNA decapping activity entry in the assay on m^7G-RNA is recorded as “can decap m^7G-RNAs”. In addition, the “Hydrolysis of Ap4A” value in assay [1] was “mostly asymmetrically hydrolyzed into ATP (Appp) and AMP (pA)”.

The values above are taken from patent US20250049894A1, “TREATMENT OF NUDT2 MUTATION” (UNIVERSITÉ DE GENÈVE, priority 2021, published 2025).
